In the supplement of paper PMC10567573 one finds protein stability index data, which are given here for 52 sequences.

± gives the standard deviation.

The series in a line: protein stability index of a GFP-peptide fusion (GPS, HEK-293T) (PSI 1-6); higher = more stable. The settings on record: c terminus: a fixed tail appended.
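Note: 24-mer peptide tiles fused after GFP, lentivirally expressed, FACS-sorted into six equal bins by GFP/DsRed ratio, decoded by Illumina sequencing, PSI is the read-weighted mean bin number.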

For LPTLVPWYFWGETFQNSVFVATFL [SCD], the protein stability index is, setting by setting: (treatment: DMSO) 3.15 ± 0.076; (treatment: MLN4924 1 uM, 8 h) 3.09 ± 0.35.

The sequence LPYQHFSAHFTSGPLVPRLAGMAN [TBX5] gave a protein stability index (treatment: DMSO) of 2.7 ± 0.27 and a protein stability index (treatment: MLN4924 1 uM, 8 h) of 2.56 ± 0.11.

Take LQGLSLIVTWFMLLYAQGLLAIQF [SLC19A2]: the protein stability index turned out to be 3.16 ± 0.26 (treatment: DMSO) and 3.16 ± 0.26 (treatment: MLN4924 1 uM, 8 h).

Take LQHAVELKPLCGCHSFAAAADGPT [SMAD6]: the protein stability index runs as follows: (treatment: DMSO) 3.16 ± 0.21; (treatment: MLN4924 1 uM, 8 h) 3.17 ± 0.28.

For the sequence LQLGAAKKPPVTFAEKGELRKSIF [TRIM29], the protein stability index is, setting by setting: (treatment: DMSO) 3.14 ± 0.16; (treatment: MLN4924 1 uM, 8 h) 3.25 ± 0.21.

LQQERQRLGQRQPPPSEPTQGPEI [DNAJC4] displayed a protein stability index (treatment: DMSO) of 5.52 ± 0.16 and a protein stability index (treatment: MLN4924 1 uM, 8 h) of 5.16 ± 0.081.

Regarding LQQQNEDLKARIDQNTVVTRQLSE [MTUS2], the protein stability index amounted to 5.1 ± 0.26 (treatment: DMSO) and 5.21 ± 0.083 (treatment: MLN4924 1 uM, 8 h).

As to LQRLKEQQFVIAGVLVEDSNNHHL [ZBED1], the protein stability index is 2.83 ± 0.085 (treatment: DMSO) and 3.02 ± 0.27 (treatment: MLN4924 1 uM, 8 h).

LQRVLEHRRRNQLIKKKKEELEAK [FAM107A]: the protein stability index (treatment: DMSO) stood at 3.49 ± 0.29 and the protein stability index (treatment: MLN4924 1 uM, 8 h) is 3.81 ± 0.5.

For LRDKTVMIIVAISPKYKQDVEGAE [TRAF3IP2], the protein stability index by setting is: (treatment: DMSO) 2.4 ± 0.047; (treatment: MLN4924 1 uM, 8 h) 2.97 ± 0.69.

For the sequence LREIAFTRQLHEKTSQLSYYYMGF [ATE1], the protein stability index was 2.31 ± 0.35 (treatment: DMSO) and 2.34 ± 0.24 (treatment: MLN4924 1 uM, 8 h).

As to LREINFKIVEFNPMVLKGKIRPDS [GLT8D2], the protein stability index by setting is: (treatment: DMSO) 2.39 ± 0.34; (treatment: MLN4924 1 uM, 8 h) 2.41 ± 0.41.

In the case of LREMCALSFQEELLYWGIAEDHLD [KCNG1], the protein stability index runs as follows: (treatment: DMSO) 2.27 ± 0.27; (treatment: MLN4924 1 uM, 8 h) 2.26 ± 0.22.

With LRHLELLDEFARENIDSLYNVNLS [SCNN1D], the protein stability index reads like this: (treatment: DMSO) 2.66 ± 0.092; (treatment: MLN4924 1 uM, 8 h) 2.94 ± 0.34.

Turning to LRRELELLGRERDRVQVERDGLAE [PRPH], the protein stability index is, setting by setting: (treatment: DMSO) 4.6 ± 0.49; (treatment: MLN4924 1 uM, 8 h) 4.8 ± 0.36.

For the sequence LRSQLQTLKQQHQQAVEQIAKAEE [CCDC89], the protein stability index is, setting by setting: (treatment: DMSO) 4.66 ± 0.15; (treatment: MLN4924 1 uM, 8 h) 4.76 ± 0.11.

As to LRTLFTDLFEKKGYTFDYAYDWVG [CSNK1G1], the protein stability index is 2.2 ± 0.21 (treatment: DMSO) and 2.12 ± 0.39 (treatment: MLN4924 1 uM, 8 h).

For LRVSPAEQPRLEFLMRKCGWFVRE [FBXO33], the protein stability index was 1.97 ± 0.12 (treatment: DMSO) and 2.08 ± 0.38 (treatment: MLN4924 1 uM, 8 h).

On to LSDDYEQVRSAAVQLIWVVSQLYP [INTS4], for which the protein stability index by setting is: (treatment: DMSO) 2.08 ± 0.43; (treatment: MLN4924 1 uM, 8 h) 2.13 ± 0.45.

Turning to LSEEEKEELKAELVQLEDEITTLR [TPD52L1], the protein stability index worked out at 5.03 ± 0.17 (treatment: DMSO) and 5.2 ± 0.19 (treatment: MLN4924 1 uM, 8 h).

LSEGCRAELAETIVYARVLALHPE [CCDC3] came in with a protein stability index (treatment: DMSO) of 2.92 ± 1.4 and a protein stability index (treatment: MLN4924 1 uM, 8 h) of 1.83 ± 0.38.

As for LSLLVMVISPVIQLQPTFTPMRVA [NSDHL], the protein stability index was found to be 3.08 ± 0.32 (treatment: DMSO) and 3.23 ± 0.087 (treatment: MLN4924 1 uM, 8 h).

For LSPALDLQAESPPVDPDSQADTVH [DNAAF3], the protein stability index worked out at 5.48 ± 0.41 (treatment: DMSO) and 5.46 ± 0.21 (treatment: MLN4924 1 uM, 8 h).

For the sequence LSRKVAELVHFLLLKYRAREPVTK [MAGEA3], the protein stability index worked out at 2.97 ± 0.42 (treatment: DMSO) and 2.44 ± 0.43 (treatment: MLN4924 1 uM, 8 h).

On to LSVTISFRIYKSVIQAVQKSEEGH [RTN3], for which the protein stability index (treatment: DMSO) was 3.26 ± 0.61 and the protein stability index (treatment: MLN4924 1 uM, 8 h) amounted to 3 ± 0.42.

Turning to LTEASAHSHPPEIKDQGGAGEGLV [MAP2], the protein stability index is, setting by setting: (treatment: DMSO) 5.57 ± 0.15; (treatment: MLN4924 1 uM, 8 h) 5.56 ± 0.2.

As to LTKFLEEHPGGEEVLREQAGGDAT [CYB5A], the protein stability index runs as follows: (treatment: DMSO) 5.44 ± 0.24; (treatment: MLN4924 1 uM, 8 h) 5.44 ± 0.26.

As to LTLKVLRSSSCGDTELLGQATLPV [C2CD2L], the protein stability index reads like this: (treatment: DMSO) 2.16 ± 0.73; (treatment: MLN4924 1 uM, 8 h) 2.33 ± 0.34.

For LVDMDMADYSAALDPAYTTLEFEN [HNF4A], the protein stability index came out at 4.24 ± 0.19 (treatment: DMSO) and 4.35 ± 0.054 (treatment: MLN4924 1 uM, 8 h).

As to LVITDFFGHLINGAIAVFVYASDK [PTGFR], the protein stability index is 3.39 ± 0.23 (treatment: DMSO) and 3.56 ± 0.49 (treatment: MLN4924 1 uM, 8 h).

Turning to LVNDDDEEADDTRYTQGTGGDEVD [ZC3H15], the protein stability index is, setting by setting: (treatment: DMSO) 5.43 ± 0.31; (treatment: MLN4924 1 uM, 8 h) 5.67 ± 0.23.

As for LVPFVGKVHIGYLPNKQVLGLSKL [GCH1], the protein stability index by setting is: (treatment: DMSO) 2.78 ± 0.19; (treatment: MLN4924 1 uM, 8 h) 2.06 ± 0.37.

With LVVIQQPSLDSRQRLDYEREIQPT [SPRY1], the protein stability index runs as follows: (treatment: DMSO) 2.96 ± 0.2; (treatment: MLN4924 1 uM, 8 h) 3.1 ± 0.11.

Consider LVYDVEVKSHLLDYVMTTLLFSDK [TRIP13], for which the protein stability index (treatment: DMSO) amounted to 2.9 ± 0.45 and the protein stability index (treatment: MLN4924 1 uM, 8 h) came out at 2.92 ± 0.47.

For LWILHLLLECYIQYHHSKIRNRGY [TMEM192], the protein stability index came out at 2.61 ± 0.51 (treatment: DMSO) and 2.49 ± 0.32 (treatment: MLN4924 1 uM, 8 h).

LYAVGGQDGVSCLNIVERYDPKEN [KLHL20]: the protein stability index by setting is: (treatment: DMSO) 3.89 ± 0.31; (treatment: MLN4924 1 uM, 8 h) 3.96 ± 0.27.

Regarding LYILGNFMQLKCFSSQKLKCLSMF [PNLIPRP1], the protein stability index worked out at 3.67 ± 0.66 (treatment: DMSO) and 3.46 ± 0.73 (treatment: MLN4924 1 uM, 8 h).

Turning to LYYYMTQTEELKYSIDQEFLKEYF [NLN], the protein stability index reads like this: (treatment: DMSO) 2.74 ± 0.85; (treatment: MLN4924 1 uM, 8 h) 2.39 ± 0.62.

With MCNVKAPLGSPSPRPRRAKRFASL [ADAMTS4], the protein stability index reads like this: (treatment: DMSO) 3.69 ± 0.26; (treatment: MLN4924 1 uM, 8 h) 3.77 ± 0.21.

With MDGESEEEQESVDTGEEEEGGDES [EHMT1], the protein stability index reads like this: (treatment: DMSO) 5.66 ± 0.15; (treatment: MLN4924 1 uM, 8 h) 5.51 ± 0.16.

Consider MDVSREEAPQWLESDSCQKCEQPF [WDFY1], for which the protein stability index (treatment: DMSO) worked out at 4.89 ± 0.17 and the protein stability index (treatment: MLN4924 1 uM, 8 h) came to 4.92 ± 0.32.

With MGGHHPGADYPVDGLPDLGHAQDL [CTNNB1], the protein stability index is, setting by setting: (treatment: DMSO) 5.03 ± 0.25; (treatment: MLN4924 1 uM, 8 h) 5.03 ± 0.3.

For MGPAQEAPVAEAWIPQAGPPELNY [ZNF449], the protein stability index runs as follows: (treatment: DMSO) 4.46 ± 0.27; (treatment: MLN4924 1 uM, 8 h) 4.51 ± 0.17.

MHVACQHGQENIVRILLRRGVDVS [RIPK4]: the protein stability index is, setting by setting: (treatment: DMSO) 2.29 ± 0.32; (treatment: MLN4924 1 uM, 8 h) 2.24 ± 0.45.

Regarding MLEKMDLKEFDLDALLGIDDLETM [ATF4], the protein stability index runs as follows: (treatment: DMSO) 3.85 ± 0.14; (treatment: MLN4924 1 uM, 8 h) 3.87 ± 0.26.

Turning to MLGLALGGLVVSAASLAGCLGALC [TSPAN10], the protein stability index worked out at 3.15 ± 0.55 (treatment: DMSO) and 3.04 ± 0.37 (treatment: MLN4924 1 uM, 8 h).

With MLIFSLALEEPEKMGLQERSETFL [DNAAF3], the protein stability index runs as follows: (treatment: DMSO) 2.18 ± 0.32; (treatment: MLN4924 1 uM, 8 h) 2.38 ± 0.12.

Take MMELGSRSRGASQKKQKLEQKAAG [FATE1]: the protein stability index reads like this: (treatment: DMSO) 4.76 ± 0.19; (treatment: MLN4924 1 uM, 8 h) 4.87 ± 0.49.

MNLHVYISEHEHFTDFNATSALFW [CLPTM1]: the protein stability index (treatment: DMSO) was found to be 2.94 ± 0.5 and the protein stability index (treatment: MLN4924 1 uM, 8 h) worked out at 2.79 ± 0.39.

MRPWTGSWRWIMLILFAWGTLLFY [FUT8] returned a protein stability index (treatment: DMSO) of 3.24 ± 0.16 and a protein stability index (treatment: MLN4924 1 uM, 8 h) of 3 ± 0.092.

With MVEADHPGKLFIGGLNRETNEKML [RBMY1A1], the protein stability index by setting is: (treatment: DMSO) 3.91 ± 0.23; (treatment: MLN4924 1 uM, 8 h) 3.92 ± 0.093.

Regarding MVKIFRLLPTKSLVALKCTCCYFK [FBXO34], the protein stability index by setting is: (treatment: DMSO) 3.18 ± 0.48; (treatment: MLN4924 1 uM, 8 h) 2.71 ± 0.69.
